{"source": "patent US11013783B2", "about": "“Anti-inflammatory peptides and methods for treating inflammatory diseases” (INSTITUT NATIONAL DE LA RECHERCHE AGRONOMIQUE (INRA), priority 2012, dated 2021)", "key": {"[1]": {"test_system": "IL-8 production by HT29-MTX cells stimulated by TNFα", "assay": "IL-8 production of HT29-MTX cells incubated with peptides and stimulated by TNFα", "format": "cell-based", "settings": "FIG. 4", "procedure": "The inventors then incubated mucus secreting intestinal epithelial HT29-MTX cells with two peptide fragments obtained from the protein ZP05614546.1.\nThe inventors measured the IL-8 production (as a marker of inflammation) after stimulation of HT29-MTX cells incubated or not with said peptides and stimulated by TNFα."}, "NFκB signaling pathway": {"test_system": "NFκB signaling pathway", "assay": "NFκB luciferase reporter system in HEK 293T cells transfected with pCMV plasmids (Carma-1-dependent activation)", "format": "cell-based, human", "settings": "for NFκB signaling pathway inhibition (%): HEK 293T NFκB reporter, proteins cloned in 3× Flag (C-term) pCMV vector, table I", "source_text": "In order to further analyze the activity of the polypeptides of the invention, the inventors decided to transfect the protein-coding cDNA directly into mammalian epithelial cell model.\nThe sequence of the protein ZP05614546.1 (SEQ ID NO: 2) has been cloned in 3× Flag (C-term) pCMV vector.\nIn order to test the NFκB signaling pathway inhibiting activity from the orthologs of ZP05614546.1, the other protein sequences from FIG. 3 were also cloned in 3× Flag (C-term) pCMV vector and tested in the NFκB reporter system in human epithelial cells HEK 293T.\nSo as to better quantify the anti-inflammatory properties of ZP05614546.1 and orthologs, increasing quantity of pCMV plasmid (i.e. 50, 25 and 12.5 ng) containing SEQ ID NO: 2 and SEQ ID NO: 4 were used to transfected HEK293 cell line. Then, the evolution of NFκB signaling pathway expression was determined as previously. […] Accordingly, the SEQ ID NO: 4 from the strain M21/2 is 100% (2 fold) more efficient in inhibiting NFκB signaling pathway than the protein ZP05614546.1.\nIn order to further analyze the activity of the polypeptides of the invention, the inventors decided to clone into the previously described pCMV plasmid, the sequences corresponding to amino acids 23-135 of SEQ ID NO: 2 (Mut 1), 1-39/72-135 of SEQ ID NO: 2 (Mut 2), 1-99 of SEQ ID NO: 2 (Mut 3), 35-77 of SEQ ID NO: 2 (p35-′7′7) and . . . - . . . of SEQ ID NO: 2 from MAM from F. prausnitzii strain A2-165. The four constructs, Mut 1, Mut 3, p35-77 and p49-70 carry the peptide 1-5."}, "colonic inflammation": {"test_system": "colonic inflammation", "assay": "Colonic inflammation model in mice treated daily orally with L. lactis expressing the protein", "format": "in vivo, C57B16 mice", "settings": "M21/2 data not shown", "procedure": "C57B16 mice (6-8 weeks old) are kept at room temperature, under 12 h light/dark cycles and having free access to food and water, except the day before the induction of colitis, where they are fasted for 12 h.\nColonic inflammation is induced by treatments with Dextran Sodium Sulfate […]. In details, DSS is dissolved in drinking water (3 or 5% wt/vol) and the animals are free to drink this solution for 7-days. Water consumption is measured in the DSS-treated groups and compared to groups of naïve mice drinking water: no difference is observed for the volume of liquid consumed, between water and DSS-drinking mice. Mice are treated daily orally, with 200 μL of 1 to 5.10^9 colony forming units (cfu) of strains to be tested or bacterial milieu alone—i.e. L. lactis expressing the protein ZP 05614546.1 (Accession number changed to WP_005932151), its ortholog of strain M21/2 (SEQ ID NO: 4) or no protein-. […] Body weight and survival rate are measured daily after the induction of colitis (or right after the first gavage, in case of preventive treatment). DAI (disease activity index is also measured):\nOn day 7 after adding DSS to their drinking water, mice are sacrificed and colons are harvested for measure of several parameters of inflammation: bowel thickness and length, myeloperoxydase (MPO) activity, cytokine expression (IL-17A, IFN-γ, IL10, IL12p70 or other cytokines) can be measured. […]"}, "[2]": {"test_system": "LPS-dependent NFκB activation", "assay": "LPS-dependent NFκB activation in HEK293T cells stably expressing TLR4, MD2 and CD14, NFκB luciferase reporter", "format": "cell-based", "settings": "FIG. 2"}}}
{"molecule": "K G N T F L Q S T I N R T I G V L (KGNTFLQSTINRTIGVL; listed as Faecalibacterium prausnitzii) [SEQ ID NO: 47, peptide fragment of ZP05614546.1, region between positions 53 and 68]", "values": [{"measurement": "anti-inflammatory effect (IL-8 production as a marker of inflammation)", "setting": "[1]", "value": "anti-inflammatory effect in a dose dependent manner"}]}
{"molecule": "VKGNPIEKNNFGDYAMNALGIAAAVYNLGVAPTKNTVKETEVKFTV (VKGNPIEKNNFGDYAMNALGIAAAVYNLGVAPTKNTVKETEVKFTV; listed as Faecalibacterium prausnitzii) [SEQ ID NO: 48, peptide fragment of ZP05614546.1, region between positions 90 and 135]", "values": [{"measurement": "anti-inflammatory effect (IL-8 production as a marker of inflammation)", "setting": "[1]", "value": "anti-inflammatory effect in a dose dependent manner"}]}
{"molecule": "L2-62: ortholog of ZP05614546.1 from strain L2-62 (protein, listed as Faecalibacterium prausnitzii) MMMPANFSAVNAEVVYGGAVADYLPSAWTAESVKRFNSNIITLVSNSFTSHLLKATLGTMFSGSWGSDGVTLFGDNGTFSGLYNVNRLPGGEAQTFGNKIMTTLGLASVVYTLGMKDAAVLTAKKVTNSNGQVWGDLPNNGGSGWVG", "values": [{"measurement": "NFκB signaling pathway inhibition (%)", "setting": "NFκB signaling pathway", "value": "34 ± 5", "unit": "%"}]}
{"molecule": "M21/2: ortholog of ZP05614546.1 from strain M21/2 (protein, listed as Faecalibacterium prausnitzii) MMMPANFSAVSENEMTYVMGGSVADYLAPAMGAAQWQNFHKNLITIVGNKYVQGFLDNTVGAMFSGTWTPGDGLTGFGGQFSTIWKKNYTDNVTDESTGAQKFGYGALGVVNSILNVAGNLAAIYNLGFGTAKNIVGEGVYKA", "values": [{"measurement": "efficiency in inhibiting NFκB signaling pathway relative to protein ZP05614546.1", "setting": "NFκB signaling pathway; 50, 25 and 12.5 ng pCMV plasmid, Carma-1-dependant NF-kB activation, HEK293T, FIG. 9", "value": 2, "unit": "fold"}, {"measurement": "NFκB signaling pathway inhibition (%)", "setting": "NFκB signaling pathway", "value": "90 ± 3", "unit": "%"}, {"measurement": "reduction of colonic inflammation", "setting": "colonic inflammation", "value": "upper than the one observed with ZP 05614546.1 protein"}]}
{"molecule": "CNCM4573: ortholog of ZP05614546.1 from strain CNCM-4573 (protein, listed as Faecalibacterium prausnitzii) MMMPANFSAVSENEMTYVMGGSIADYLAPAMGAAQWQNFHKNLVTIVGNKYVQGFLDNTVGAVFSGTWTPGVGLTGFGGQFSTIWKKNYTDNVTDESTGAQKFGYGALGVVNSILNVAGNLAAIYNLGFGTAKNIVGEGVYKA", "values": [{"measurement": "NFκB signaling pathway inhibition (%)", "setting": "NFκB signaling pathway", "value": "89 ± 2", "unit": "%"}]}
{"molecule": "SL3/3: ortholog of ZP05614546.1 from strain SL3/3 (protein, listed as Faecalibacterium prausnitzii) MMMPANFSAVSENEMTYVMGGSVADYLAPAMGAAQWQNFHKNLITIVGNKYVQGFLDNTVGAVFSGTWTPGDGLTGFGGQFSKIWKDNYTDNVTGESTGAQKFGYGALGVVNSILNVAGNLAAIYNLGFGTAKNIVGEGVYKA", "values": [{"measurement": "NFκB signaling pathway inhibition (%)", "setting": "NFκB signaling pathway", "value": "86 ± 5", "unit": "%"}]}
{"molecule": "ZP05614546.1: conserved hypothetical protein of F. prausnitzii strain A2-165 (protein, listed as Faecalibacterium prausnitzii) MMMPANYSVIAENEMTYVNGGANFIDAIGAVTAPIWTLDNVKTFNTNIVTLVGNTFLQSTINRTIGVLFSGNTTWKEVGNIGKNLFGTNVKGNPIEKNNFGDYAMNALGIAAAVYNLGVAPTKNTVKETEVKFTV", "values": [{"measurement": "NFκB signaling pathway inhibition (%)", "setting": "NFκB signaling pathway", "value": "58 ± 6", "unit": "%"}, {"measurement": "inhibition of Carma-1-dependent NFκB activation", "setting": "NFκB signaling pathway; HEK293T cells, NFκB luciferase reporter, FIG. 1", "value": "inhibits Carma-1-dependent NFκB activation"}, {"measurement": "inhibition of NFκB signaling pathway", "setting": "NFκB signaling pathway; NFκB reporter system in human epithelial cells HEK 293T, protein cDNA transfected in pCMV vector", "value": "inhibits the NFκB signaling pathway in a dose-dependent manner"}, {"measurement": "inhibition of LPS-dependent NFκB activation", "setting": "[2]", "value": "inhibits the LPS-dependent NFκB activation"}, {"measurement": "reduction of colonic inflammation", "setting": "colonic inflammation", "value": "significantly reduce colonic inflammation"}]}
{"molecule": "KLE1255: ortholog of ZP05614546.1 from strain KLE1255 (protein, listed as Faecalibacterium prausnitzii) MMMPANFSAVAENEMTYVVGGSLVDVLAPAMTTANWQNVSANVIKIVGNSFLAKYTNDVLAQLFDGNYVPGDVIGYSVKNLDKAYNKGYGTFGGNWGFAVGALNAGMQILGGLSAIYTLGSSSIGLETKSGTLPTL", "values": [{"measurement": "NFκB signaling pathway inhibition (%)", "setting": "NFκB signaling pathway", "value": "72 ± 1", "unit": "%"}]}
